{"source": "patent US10023882B1", "about": "“Hetero-oligomers of (S)-carbonyl reductases and their applications in catalyzing reduction of polyphenyl ketones” (Jiangnan University, priority 2017, dated 2018)", "molecules": {"B1": {"name": "SCR3: homo-oligomer (S)-carbonyl reductase from Candida parapsilosis, amino acid sequence SEQ ID NO: 3 (protein, listed as Candida parapsilosis)", "chain": "MGEIESYCNKELGPLPTKAPTLAKNVLDLFSLKGKVASVTGSSGGIGWAVAEAYAQAGADVAIWYNSHPADEKAEHLQKTYGVRSKAYKCNISDPKSVEETISQQEKDFGTIDVFVANAGIPWADGPVIDLENYDAWNKLINTDINGVFYCAHSIGKIFKKNGKGSLIITASLAGSVVTIPQQQTPYNTAKAACLHLAKSLAVEWAPFARVNTVSPGYFETEINGFADEDMREKWYQLTPLGRMGITEELVGGYLYFASNASTFTTGSDLIIDGGFTCP"}, "B2": {"name": "Strep-SCR2, (S)-carbonyl reductase SCR2 of Candida parapsilosis with N-terminal Strep-tag, expressed from pET21-Strep-SCR2 (protein)", "chain": "MGEIESYCNKELGPLPTKAPTLSKNVLDLFSLKGKVASVTGSSGGIGWAVAEAYAQAGADVAIWYNSHPADEKAEHLQKTYGVRSKAYKCNISDPKSVEETISQQEKDFGTIDVFVANAGVPWTEGPEINVDNYDSWNKIINLDLNGVYYCAHTVGKIFKKNGKGSLVITSSMSGTIVNVPQLQAAYNAAKAACTHLTKSLAVEWAPFARVNCVSPGYIATEISDFVEKDMKAKWWQLTPLGREGLAQELVGAYLYLASNASTYTTGANLAVDGGYTCP"}, "B3": {"name": "Strep-SCR, (S)-carbonyl reductase SCR of Candida parapsilosis with N-terminal Strep-tag, expressed from pET21-Strep-SCR (protein)", "chain": "MGEIESYCNKELGPLPTKAPTLSKNVLDLFSLKGKVASVTGSSGGIGWAVAEAYAQAGADVAIWYNSHPADEKAEHLQKTYGVHSKAYKCNISDPKSVEETISQQEKDFGTIDVFVANAGVTWTQGPEIDVDNYDSWNKIISVDLNGVYYCSHNIGKIFKKNGKGSLIITSSISGKIVNIPQLQAPYNTAKAACTHLAKSLAIEWAPFARVNTISPGYIDTDITDFASKDMKAKWWQLTPLGREGLTQELVGGYLYLASNASTFTTGSDVVIDGGYTCP"}, "B4": {"name": "SCR, (S)-carbonyl reductase of Candida parapsilosis, as in the hetero-oligomer SCR/SCR3 (enzyme)", "chain": "B3 chain"}, "B5": {"name": "SCR: homo-oligomer (S)-carbonyl reductase from Candida parapsilosis, amino acid sequence SEQ ID NO: 1 (protein, listed as Candida parapsilosis)", "chain": "B3 chain"}}, "key": {"[1]": {"assay": "Reductive activity assay towards 2-acetonaphthone (NADPH oxidation, absorbance at 340 nm)", "type": "biochemical", "settings": "purified enzyme, 0.5 mM NADPH, 1 mM substrate, 30° C.", "method": "(§1) (1) Principle and definition: The enzyme activity for the reduction of prochiral ketones to chiral alcohols by homo-oligomers was determined with purified enzymes by measuring the decrease in absorbance at 340 nm resulting from the oxidation of NADPH. Protein concentration was determined by Beyotime (Shanghai, China) using bovine serum albumin as a standard.\n(§2) (2) Enzyme activity assay conditions (250 ul): 0.5 mmol·L^−1 NADPH, 1 mmol·L^−1 substrate (2,4-dichlorobenzophenone, 2-naphthyl ketone, or [(E)-2-[3-[3-[2-(7-chloro-2-quinolinyl)ethenyl]phenyl]-3-oxopropyl]benzoic acid methyl ester (Keto Easter M).). Incubate the mixture at 30° C. for 2 min, then add appropriate amount of enzyme, and finally measure the absorbance at 340 nm wavelength.\n(§3) Formula for calculating enzyme activity is: Enzyme activity (U)=EW×V×10^3/(6220×0.15), and formula for calculating relative enzyme activity is: relative enzyme activity (U/mg)=enzyme activity (U)/protein content (mg), wherein EW is the measured change of absorbance at 340 nm in 1 min; V is the reaction volume (mL); the molar absorption coefficient (L mol^−1 cm^−1) is 6220; and the optical length is 0.15 cm.\n(§4) One unit of the enzyme activity is defined as the amount of enzyme catalyzing the formation and oxidation of 1 μmol of NAD(P)H per minute under measurement conditions.\n(§5) Enzyme activity assay system (250 ul) contained 0.5 mM NADPH, 1 mM substrate (i.e. 2-acetonaphthone) and appropriate amount of enzyme. The reaction mixture was incubated at 30° C. for 2 min, the appropriate amount of enzyme was added, and finally the absorption change was scanned at 340 nm wavelength. The calculated relative enzyme activity of SCR/SCR2 was 2.43 U/mg towards 2-acetonaphthone."}, "[2]": {"assay": "Reductive activity assay towards Keto Easter M (NADPH oxidation, absorbance at 340 nm)", "type": "biochemical", "settings": "purified enzyme, 0.5 mM NADPH, 1 mM substrate, 30° C.", "method": "as §1, §2, §3, §4\nas §5, with “[(E)-2-[3-[3-[2-(7-chloro-2-quinolinyl)ethenyl]phenyl]-3-oxopropyl]benzoic acid methyl ester (Keto Easter M)” for “2-acetonaphthone)”, “and SCR2/SCR3 were 0.86 U/mg and 1.21” for “was 2.43”, “[(E)-2-[3-[3-[2-(7-chloro-2-quinolinyl)ethenyl]phenyl]-3-oxopropyl]benzoic acid methyl ester (Keto Easter M), respectively.” for “2-acetonaphthone.”"}, "[3]": {"assay": "Reductive activity assay towards 2,4-dichlorobenzophenone (NADPH oxidation, absorbance at 340 nm)", "type": "biochemical", "settings": "purified enzyme, 0.5 mM NADPH, 1 mM substrate, 30° C.", "method": "as §1, §2, §3, §4\nas §5, with “2,4-dichlorobenzophenone)” for “2-acetonaphthone)”, “and SCR2/SCR3 were 4.55 U/mg and 4.42” for “was 2.43”, “2,4-dichlorobenzophenone, respectively.” for “2-acetonaphthone.”"}, "[4]": {"target": "T1, His-SCR3, (S)-carbonyl reductase SCR3 of Candida parapsilosis with N-terminal His-tag, expressed from pET28-His-SCR3", "T1 chain": "B1 chain"}, "[5]": {"target": "T2, His-SCR2, (S)-carbonyl reductase SCR2 of Candida parapsilosis with N-terminal His-tag, expressed from pET28-His-SCR2", "T2 chain": "B2 chain"}, "[6]": {"target": "T3, SCR3, (S)-carbonyl reductase of Candida parapsilosis, as in the hetero-oligomer SCR/SCR3", "T3 chain": "B1 chain"}, "[7]": {"target": "T4, SCR3, (S)-carbonyl reductase of Candida parapsilosis, as in the hetero-oligomer SCR/SCR3 (Candida parapsilosis, UniProt G8BHG5 1-279)", "T4 sequence": "B1 chain", "assay": "method not described for this pair"}}, "note": "Entries after “also recorded” stand apart in the source; their conditions may differ."}
{"molecule": "B1", "values": [{"measurement": "relative enzyme activity (specific activity) towards 2-acetonaphthone", "setting": "[1]", "result": "no specific activity is observed; also recorded: no enzyme activities were detected"}, {"measurement": "relative enzyme activity (specific activity) towards Keto Easter M", "setting": "[2]", "result": "no specific activity is observed; also recorded: no enzyme activities were detected"}, {"measurement": "relative enzyme activity (specific activity) towards 2,4-dichlorobenzophenone", "setting": "[3]", "result": "no specific activity is observed; also recorded: no enzyme activities were detected"}]}
{"molecule": "B2", "values": [{"measurement": "relative enzyme activity towards 2,4-dichlorobenzophenone", "setting": "[4]", "result": 4.42, "unit": "U/mg"}, {"measurement": "relative enzyme activity towards [(E)-2-[3-[3-[2-(7-chloro-2-quinolinyl)ethenyl]phenyl]-3-oxopropyl]benzoic acid methyl ester (Keto Easter M)", "setting": "[4]", "result": 1.21, "unit": "U/mg"}, {"measurement": "relative enzyme activity (specific activity) towards 2-acetonaphthone", "setting": "[1]", "result": "no specific activity is observed; also recorded: no enzyme activities were detected"}, {"measurement": "relative enzyme activity (specific activity) towards Keto Easter M", "setting": "[2]", "result": "no specific activity is observed; also recorded: no enzyme activities were detected"}, {"measurement": "relative enzyme activity (specific activity) towards 2,4-dichlorobenzophenone", "setting": "[3]", "result": "no specific activity is observed; also recorded: no enzyme activities were detected"}]}
{"molecule": "B3", "values": [{"measurement": "relative enzyme activity towards 2,4-dichlorobenzophenone", "setting": "[5]", "result": 4.55, "unit": "U/mg"}, {"measurement": "relative enzyme activity towards 2-acetonaphthone", "setting": "[5]", "result": 2.43, "unit": "U/mg"}, {"measurement": "relative enzyme activity towards [(E)-2-[3-[3-[2-(7-chloro-2-quinolinyl)ethenyl]phenyl]-3-oxopropyl]benzoic acid methyl ester (Keto Easter M)", "setting": "[5]", "result": 0.86, "unit": "U/mg"}]}
{"molecule": "B4", "values": [{"measurement": "activities to polyphenyl ketones", "setting": "[6]", "result": "also showed some activities to polyphenyl ketones"}, {"measurement": "binding result", "setting": "[7]", "result": "binds"}]}
{"molecule": "B5", "values": [{"measurement": "relative enzyme activity (specific activity) towards 2-acetonaphthone", "setting": "[1]", "result": "no specific activity is observed; also recorded: no enzyme activities were detected"}, {"measurement": "relative enzyme activity (specific activity) towards Keto Easter M", "setting": "[2]", "result": "no specific activity is observed; also recorded: no enzyme activities were detected"}, {"measurement": "relative enzyme activity (specific activity) towards 2,4-dichlorobenzophenone", "setting": "[3]", "result": "no specific activity is observed; also recorded: no enzyme activities were detected"}]}
